In ChEMBL document CHEMBL1150982, “Formation of the Michaelis complex without involvement of the prosthetic group dehydroalanine of histidine ammonialyase” (Bioorg Med Chem Lett, 1997) one finds Km and Vmax data, which are given here for 1 protein.

Settings in all cases: Pseudomonas putida
Compound in data set [1]: NC(Cc1[nH]cnc1[N+](=O)[O-])C(=O)O
Description: The kinetic constant with the compound as substrate of HAL mutant S143G was determined using L-hisdine as competitive inhibitor.

Substrate in data set [2]: NC(Cc1[nH]cnc1[N+](=O)[O-])C(=O)O
Description: (§1) The kinetic constant with the compound as substrate of S143T mutant enzyme was determined.

Substrate in data set [3]: N[C@@H](Cc1c[nH]cn1)C(=O)O
Described as §1.

Compound in data set [4]: NC(Cc1[nH]cnc1[N+](=O)[O-])C(=O)O
As to the kind of experiment: The kinetic constant with the compound as substrate of recombinant wild-type Escherichia coli BL21 was determined using L-hisdine as competitive inhibitor.

Substrate in data set [5]: NC(Cc1[nH]cnc1[N+](=O)[O-])C(=O)O
Description: (§2) The kinetic constant with the compound as substrate of recombinant wild-type HAL enzyme was determined.

Substrate in data set [6]: N[C@@H](Cc1c[nH]cn1)C(=O)O
Described as §2.

Compound in data set [7]: NC(Cc1[nH]cnc1[N+](=O)[O-])C(=O)O
Description: The kinetic constant with the compound as substrate of wild-type Pseudomonas ATCC 11299b was determined using L-hisdine as competitive inhibitor.

Substrate in data set [8]: NC(Cc1[nH]cnc1[N+](=O)[O-])C(=O)O
As to the kind of experiment: (§3) The kinetic constant with the compound as substrate of S143A mutant enzyme was determined.

Substrate in data set [9]: N[C@@H](Cc1c[nH]cn1)C(=O)O
The description is as §3.

Substrate in data set [10]: NC(Cc1[nH]cnc1[N+](=O)[O-])C(=O)O
Description: (§4) The kinetic constant with the compound as substrate of S143G mutant enzyme was determined.

Substrate in data set [11]: N[C@@H](Cc1c[nH]cn1)C(=O)O
The description is as §4.

B1: Histidine ammonia-lyase (Homo sapiens), P42357 (protein)
chain: MPRYTVHVRGEWLAVPCQDAQLTVGWLGREAVRRYIKNKPDNGGFTSVDDAHFLVRRCKGLGLLDNEDRLEVALENNEFVEVVIEGDAMSPDFIPSQPEGVYLYSKYREPEKYIELDGDRLTTEDLVNLGKGRYKIKLTPTAEKRVQKSREVIDSIIKEKTVVYGITTGFGKFARTVIPINKLQELQVNLVRSHSSGVGKPLSPERCRMLLALRINVLAKGYSGISLETLKQVIEMFNASCLPYVPEKGTVGASGDLAPLSHLALGLVGEGKMWSPKSGWADAKYVLEAHGLKPVILKPKEGLALINGTQMITSLGCEAVERASAIARQADIVAALTLEVLKGTTKAFDTDIHALRPHRGQIEVAFRFRSLLDSDHHPSEIAESHRFCDRVQDAYTLRCCPQVHGVVNDTIAFVKNIITTELNSATDNPMVFANRGETVSGGNFHGEYPAKALDYLAIGIHELAAISERRIERLCNPSLSELPAFLVAEGGLNSGFMIAHCTAAALVSENKALCHPSSVDSLSTSAATEDHVSMGGWAARKALRVIEHVEQVLAIELLAACQGIEFLRPLKTTTPLEKVYDLVRSVVRPWIKDRFMAPDIEAAHRLLLEQKVWEVAAPYIEKYRMEHIPESRPLSPTAFSLQFLHKKSTKIPESEDL
For the protein B1, the Km – broadly, the concentration of substrate that gives half-maximal velocity – in [1] amounted to 5.3 mM; in data set [2] it was 12.8 mM; in data set [3] it was 3.1 mM; in data set [4], 5.2 mM; in data set [5], 7.7 mM; in [6], 5.2 mM. Further, the Michaelis constant (Km) in [7] came to 4 mM; in data set [8], 9.8 mM; in [9], 7.5 mM; in data set [10], 4 mM; in data set [11], 5.3 mM. In addition, the Vmax in data set [2] amounted to 0.87 IU mg-1; in data set [3], 0.00047 IU mg-1; in data set [5], 0.85 IU mg-1; in [6], 25 IU mg-1; in [8] it was 0.87 IU mg-1; in data set [9] it was 0.0214 IU mg-1. The Vmax in [10] turned out to be 0.52 IU mg-1; in data set [11] it was 0.0047 IU mg-1.
